The supplement of paper PMC10567573
± gives the standard deviation.

Assay: protein stability index of a GFP-peptide fusion (GPS, HEK-293T) (PSI 1-6); higher = more stable
[1] = treatment: DMSO, c terminus: a fixed tail appended
[2] = treatment: MLN4924 1 uM, 8 h, c terminus: a fixed tail appended
[3] = treatment: DMSO, c terminus: native
[4] = treatment: MLN4924 1 uM, 8 h, c terminus: native
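Further: 24-mer peptide tiles fused after GFP, lentivirally expressed, FACS-sorted into six equal bins by GFP/DsRed ratio, decoded by Illumina sequencing, PSI is the read-weighted mean bin number.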

Sequence | protein stability index [1] | protein stability index [2] | protein stability index [3] | protein stability index [4]
TPYPNLYPDQSPSEDWTMEERFRP [CLCN6] | 3.85 ± 0.26 | 4.07 ± 0.15 | – | –
TQHVNNWMKHNVADSQITTIGNLV [PTPRD] | 2.9 ± 0.44 | 3.12 ± 0.42 | – | –
TRVSQLGLQVEGLRRRLEELQQEL [LRRC45] | 4.36 ± 0.24 | 4.55 ± 0.46 | – | –
TSEVDKRRTRPRHHHGRSRPDRSS [CHGB] | 5.07 ± 0.37 | 5.06 ± 0.31 | – | –
TSITLTASRVSKVNDKRRKKSGEK [KMT2E] | 4.04 ± 0.28 | 4.47 ± 0.17 | – | –
TSLQGLTGTPLVAGSPIRHENAVQ [ISL2] | 4.31 ± 0.33 | 4.36 ± 0.16 | – | –
TSRFGSQCMQPNNIMGIENICELA [NR2F2] | 2.88 ± 0.28 | 2.74 ± 0.35 | – | –
TSRNLIGGADIIVIKYNVNDKFSF [RHOBTB3] | 2.83 ± 1.2 | 2.68 ± 1.6 | – | –
TSSGLATASFRTSKYLLEEWFQNC [TEKT4] | 2.68 ± 0.21 | 2.7 ± 0.14 | – | –
TTGPNPFTTLTDRELEEYRREVER [ADD1] | 5.08 ± 0.18 | 5.16 ± 0.21 | – | –
TTLKGHEGSVACLWWDPIQRLLFS [WDFY1] | 2.08 ± 0.27 | 2.35 ± 0.39 | – | –
TTREIRRQEAIYEMSRGEQDLIED [NET1] | 5.25 ± 0.16 | 5.13 ± 0.17 | – | –
TTTRRIVDGKVVSETNDTKVLRH [KRT18] | – | – | 5.19 ± 0.24 | 5.28 ± 0.3
TVPEILVHNIVIFMRTSVKISYIG [TMEM106C] | 3.01 ± 0.38 | 3.11 ± 0.29 | – | –
TVTLTVAVADSIPQVLADLGSFES [PCDHGA10] | 2.28 ± 0.32 | 2.11 ± 0.093 | – | –
TWSNQTQNIQSWSNHSWNTQTWCT [NANOGP8] | 2.27 ± 0.15 | 2.27 ± 0.26 | – | –
TYGQPKQAPPADFIPAHVAFDKKV [EFHC1] | 3.81 ± 0.34 | 4.16 ± 0.061 | – | –
TYGWTANMERIMKAQALRDNSTMG [HSP90AB1] | 2.87 ± 0.24 | 3.31 ± 0.3 | – | –
TYPAHQNRVSAIIFSLATEWVIST [WDFY1] | 3.57 ± 0.89 | 2.92 ± 1.1 | – | –
VAFRGLKGKKLYPVVSAVWGHCEI [SPSB1] | 2.62 ± 0.13 | 3.16 ± 0.071 | – | –
VAHCHQSAIVLGDLKLRKFVFSTE [TRIB1] | 2.25 ± 0.36 | 2.36 ± 0.63 | – | –
VASFKFDAGEVSYLPRDFSTYRPL [MYORG] | 2.28 ± 0.37 | 2.54 ± 0.17 | – | –
VCDESVRKLSSAVRSGIVEYLSLV [PRIM1] | 2.34 ± 0.83 | 2.1 ± 0.3 | – | –

Sequence | protein stability index [1] | protein stability index [2] | protein stability index [3] | protein stability index [4]
VDDVSVSLRLWDTFGDHHKDRRFA [RHOBTB2] | 3.28 ± 0.23 | 3.19 ± 0.28 | – | –
VDICHMLVQFCRLGSPRSRGCLW [EHMT1] | – | – | 2.67 ± 0.14 | 2.71 ± 0.66
VDLVQKYLEKYYNLKNDGRQVEKR [MMP1] | 2.42 ± 0.25 | 2.68 ± 0.36 | – | –
VDQMNRIVEVLGIPPAAMLDQAPK [DYRK1B] | 3.62 ± 0.25 | 3.52 ± 0.15 | – | –
VEAKSWTASSSYGKGEGPIWLDNL [LOXL2] | 2.42 ± 0.31 | 2.61 ± 0.74 | – | –
VEEGDSRFLANEVLQENYTHLPKA [WEE1] | 4.74 ± 0.2 | 4.81 ± 0.13 | – | –
VFFIYLYQRWIYRVDPTRVNEFGM [CLPTM1] | 2.96 ± 0.49 | 2.69 ± 0.055 | – | –
VFPGARLLTIGDANGEIQRHAEQQ [CARM1] | 4.64 ± 0.16 | 4.23 ± 0.2 | – | –
VFQEMLLHKFPYRMVPALPPKRML [SNX8] | 2.12 ± 0.54 | 2.13 ± 0.22 | – | –
VFQTEQKNLFRLEMDMVVFRPEMK [N4BP2L1] | 2.02 ± 0.26 | 2.16 ± 0.092 | – | –
VGDIVSFMHSFEEKYGRAHPVFYQ [FAF2] | 2.04 ± 0.34 | 2.17 ± 0.22 | – | –
VGEIVGIITRHNLTYEFLQARLRQ [CLCN6] | 2.73 ± 0.64 | 2.67 ± 0.85 | – | –
VGLRNTLTRIRKWIEHSKLREINF [GLT8D2] | 2.41 ± 0.3 | 1.9 ± 0.31 | – | –
VGPRETEEKVRDLLWAKFTNSDTP [TOR1AIP2] | 4.14 ± 0.43 | 4.1 ± 0.3 | – | –
VGRIANTYNLTEVDKYVNSFVLKN [KLHL13] | 2.64 ± 0.32 | 2.85 ± 0.45 | – | –
VGSALHRESFTSRQKTSGPSVIQE [C10orf62] | 4.18 ± 0.15 | 4.46 ± 0.2 | – | –
VHETPAASKTVFFFFSSPGNNNGT [BTBD1] | 2.37 ± 0.3 | 2.15 ± 0.31 | – | –
VHPIIKRRQCRPEIRMWQTREKAK [PHTF1] | 3.15 ± 0.21 | 3.32 ± 0.13 | – | –
VILISRISSVGGEAMFCDFPKINH [CFHR2] | 3.66 ± 1.3 | 2.97 ± 0.21 | – | –
VILKNSQGEEVAQRSTVFKTTIPE [LMNB1] | 2.67 ± 0.34 | 2.84 ± 0.24 | – | –
VKDALFCSCLSDILRFIYSGAFQW [RHOBTB3] | 2.79 ± 0.36 | 3.31 ± 0.48 | – | –
VKDDELDAMLKEASGPINFTMFLN [MYL5] | 3.39 ± 0.082 | 3.5 ± 0.19 | – | –
VKYGLAATVWSSNVGRVHRVAKKL [ALDH8A1] | 2.48 ± 0.33 | 2.43 ± 0.4 | – | –

Sequence | protein stability index [1] | protein stability index [2] | protein stability index [3] | protein stability index [4]
VKYVGNMHGNEALGRELMLQLSEF [CPN1] | 2.24 ± 0.2 | 2.25 ± 0.39 | – | –
VLLKTADPRYELPSRKYISTKAIP [ZBED1] | 2.19 ± 0.37 | 2.34 ± 0.62 | – | –
VLMLLVALLFTGIAVLGIVMLKRI [SCAMP3] | 2.85 ± 0.63 | 3.02 ± 0.73 | – | –
VNHYSEVADGLCCVLTTPCLTQST [SLA] | 2.77 ± 0.27 | 2.53 ± 0.38 | – | –
VNNNYEHRHTSHLGHAVLPSNARG [SPRY1] | 3.96 ± 0.2 | 4.03 ± 0.21 | – | –
VPAPEAFRDPIWSTWALYGRAVDQ [MYORG] | 2.66 ± 0.38 | 2.61 ± 0.34 | – | –
VPCYSKTQKLSKIETLRLAKNYIW [NEUROD6] | 2.43 ± 0.34 | 2.81 ± 0.58 | – | –
VPSAVRCLQKRGSATSSSNTSLT [FSD1] | – | – | 4.34 ± 0.13 | 4.43 ± 0.082
VPWNQVGMRDADYIAAFLHVLLPV [HDAC6] | – | 2.07 ± 1.5 | – | –
VQDYSYFFFLRMDENYNLLPHGVN [CCDC3] | 2.38 ± 0.48 | 2.48 ± 0.37 | – | –
VQESQSERLQAAGTDSAGPKTVPS [ELOA2] | 5.29 ± 0.38 | 5.19 ± 0.35 | – | –
VSAQYLSEIEMAKAQRDYELKKAA [FLOT1] | 4.34 ± 0.22 | 4.54 ± 0.14 | – | –
VSCPKSEVRAKFKFSLLNAKREET [SPOPL] | 3.67 ± 0.3 | 3.53 ± 0.19 | – | –
VSPGPSRSFKEELLCAVCYDPFRD [TRIM35] | 2.79 ± 0.21 | 2.91 ± 0.27 | – | –
VSTQPAMMVNLRACSAPGGLVPSE [C2CD2L] | 3.43 ± 0.16 | 3.5 ± 0.14 | – | –
VTADDFVQTSVIGSNGYILNKPAL [EHMT1] | 3.11 ± 0.26 | 3.13 ± 0.25 | – | –
VVFGLLLSYVMSGYRCFVCPVEYN [CDS2] | 3.55 ± 0.062 | 3.41 ± 0.31 | – | –
VVGDNAVGKTRLICARACNATLTQ [RHOBTB2] | 2.63 ± 0.17 | 2.67 ± 0.14 | – | –
VVNESTVCLMGHERRQTLNLISLL [TENT5C] | 2.18 ± 0.23 | 2.31 ± 0.12 | – | –
VYGVSKETFLSFLEYLYTDSCCPA [RHOBTB3] | 2.16 ± 0.41 | 2.1 ± 0.24 | – | –
VYLHFLSVVTEDGPEPKDKGSLPQ [ZNF232] | 2.27 ± 0.18 | 2.35 ± 0.33 | – | –
VYNANINLFCVLRLVVEFPATGGA [PKD2L1] | 3.05 ± 0.41 | 3.13 ± 0.71 | – | –
WEGFIGGFFSTVVFGFIAAYVLSK [CDS1] | 2.55 ± 0.54 | 3.08 ± 0.15 | – | –

Sequence | protein stability index [1] | protein stability index [2] | protein stability index [3] | protein stability index [4]
WEHRTRVGRLYAVYDQAVSIFYDL [SMAD6] | 2.52 ± 0.66 | 2.59 ± 0.47 | – | –
WEMIRKIGDTSVSYKYTSRYVLKA [LMNB1] | 1.98 ± 0.58 | 2.56 ± 0.49 | – | –
WFLSKTEELNKEVASNSELVQSSR [KRT16] | 3.86 ± 0.39 | 3.96 ± 0.17 | – | –
WLLTKIDHWNNEKERILLVTDKTL [TPRG1] | 2.11 ± 0.41 | 2.16 ± 0.28 | – | –
WLSSRAAAIKVNDSVPFHLGWNST [MYORG] | 1.99 ± 0.23 | 2.19 ± 0.38 | – | –
WNDSCGEDMEASDYELEDETRPAK [WEE1] | 5.41 ± 0.32 | 5.45 ± 0.17 | – | –
WRGNGINVLKIAPESAIKFMAYEQ [SLC25A25] | 2.19 ± 0.29 | 2.36 ± 0.19 | – | –
WRTWMTITQSWQVSVRVQPRGRAH [C22orf15] | 2.38 ± 0.64 | 3.05 ± 0.39 | – | –
WSQQIEESTTVVTTQSAEVGAAET [KRT18] | 5.5 ± 0.21 | 5.42 ± 0.14 | – | –
WVKQQAEREAEKEQKRLERLQRKL [SDE2] | 4.18 ± 0.36 | 4.1 ± 0.33 | – | –
WVLEPVLEGWRPDQLYRRKKDNHA [ELOA2] | 2.51 ± 0.31 | 3.34 ± 0.14 | – | –
WVSHTAAMTGTFPAYGMSPSLSTI [DVL3] | 2.62 ± 0.34 | 2.29 ± 0.26 | – | –
YCFMIAYGTQRTLILESQNWRYAT [FUT8] | 3.46 ± 0.51 | 3.28 ± 0.27 | – | –
YEEGMYADWWQEPDAKGDEAEAEP [P3H4] | 5.49 ± 0.17 | 5.37 ± 0.22 | – | –
YFMIQALNQKTSEKMKKRKMSNSF [RHOBTB3] | 2.24 ± 0.08 | 2.37 ± 0.33 | – | –
YGPVEVISHWHPNITINIVDDHTP [CLPTM1] | 2.41 ± 0.23 | 2.54 ± 0.17 | – | –
YGRSDVVVLCFSIANPNSLNHVKS [RHOBTB1] | 3.21 ± 0.43 | 2.64 ± 0.69 | – | –
YHPRDQNKVLVCPMKSAPVMLTLS [RBBP5] | 2.33 ± 0.66 | 2.34 ± 0.3 | – | –
YLNLDTWEWNELIPQGICPVGRSW [KLHDC2] | 2.79 ± 1.1 | 2.39 ± 0.42 | – | –
YLSCLEELMKCQIIYPRQQLLTLR [TRIP13] | 2.68 ± 0.68 | 2.69 ± 0.36 | – | –
